In publication PMC6930080:

Biological target: ATP synthase subunit α (Euglena gracilis)
Assay: cryo-EM structure; native ATP synthase dimer with bound IF1, co-purified as one complex from E. gracilis mitochondria; 25 mM HEPES/KOH pH 7.5, 25 mM KCl, 15 mM MgOAc2, 2 mM DTT, 0.05% β-DDM; maps: membrane region 2.82 Å, F1/c-ring rotational states 1-3 3.04, 3.14 and 3.92 Å, rotor 3.3 Å, peripheral stalk tip 3.82 Å, consensus dimer 4.32 Å

ATPase inhibitory factor 1 (IF1) (natural protein)
percent of particles of rotational state 3 that contain IF1: 34%
